For series [1], the target named is Alanine racemase AlrTt (MBAlr1) from Thermoanaerobacter tengcongensis MB4, wild type (Thermoanaerobacter tengcongensis MB4) (UniProt Q8RAK6). Nature of the series: crystal structure; AlrTt (10 mg/mL) incubated with L-Ala and PLP at 1:1.5:1.5 molar ratio, hanging drop, 22% PEG 4000, 0.1 M Bis-Tris pH 7.0, 289 K; 2.7 Å; homodimer in one asymmetric unit.
Series [2] concerns the target T1, AlrTt (Caldanaerobacter subterraneus, UniProt Q8RAK6).
T1 construct: gene alr1; full length, pET-28a, N- and C-terminal 6xHis tags, E. coli BL21(DE3); 388 residues; homodimer in crystal, monomer in size exclusion
Nature of the series: X-ray crystal structure, […] Å. It is filed as binding. The settings on record: co-crystallized with L-Ala and PLP, pH 7.0; active site.

Series [3] concerns the target T1, AlrTt. As to the kind of experiment: PLP content by absorption at […] nm. The settings on record: active site, internal aldimine with Lys40 (covalent); in the crystal only the phosphate group of PLP was seen. It is filed as binding.
Substrate in series [4]: C[C@@H](N)C(=O)O
Nature of the series: purified protein. The settings on record: D-Ala to L-Ala; conditions of the kinetic assay not given.

Substrate in series [5]: C[C@H](N)C(=O)O
Nature of the series: purified protein. Conditions: L-Ala to D-Ala; conditions of the kinetic assay not given.

Changes are numbered by the printed parent chain. Names and notes keep the numbering of the source.

T1 sequence (Q8RAK6 whole entry): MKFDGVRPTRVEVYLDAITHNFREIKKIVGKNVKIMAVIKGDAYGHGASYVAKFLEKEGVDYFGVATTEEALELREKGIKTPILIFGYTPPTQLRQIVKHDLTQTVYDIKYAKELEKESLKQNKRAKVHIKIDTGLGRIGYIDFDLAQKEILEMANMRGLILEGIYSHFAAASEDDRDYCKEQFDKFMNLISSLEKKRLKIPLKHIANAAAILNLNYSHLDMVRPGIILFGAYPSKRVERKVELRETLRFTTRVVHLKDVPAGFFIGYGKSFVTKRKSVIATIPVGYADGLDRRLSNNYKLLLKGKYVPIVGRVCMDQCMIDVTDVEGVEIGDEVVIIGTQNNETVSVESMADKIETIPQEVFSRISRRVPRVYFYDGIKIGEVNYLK

“Alanine racemase AlrTt (MBAlr1) from Thermoanaerobacter tengcongensis MB4, wild type (from UniProt Q8RAK6 1-388) (enzyme)”: in series [1], the stoichiometry N amounted to 2.

With `C[C@H](N)C(=O)O` [L-Ala], the “X-ray crystal structure, 2.7 Å” value on AlrTt [2] is given as “One L-Ala molecule is positioned in the active site pocket by hydrogen bonds”.

In turn, `Cc1ncc(COP(=O)(O)O)c(C=O)c1O` [PLP] had a PLP content on AlrTt [3] of 1.44 ± 0.01 mol PLP per mol enzyme.

B1: AlrTt (Caldanaerobacter subterraneus subsp. tengcongensis MB4; Q360Y) (protein)
chain: MKFDGVRPTRVEVYLDAITHNFREIKKIVGKNVKIMAVIKGDAYGHGASYVAKFLEKEGVDYFGVATTEEALELREKGIKTPILIFGYTPPTQLRQIVKHDLTQTVYDIKYAKELEKESLKQNKRAKVHIKIDTGLGRIGYIDFDLAQKEILEMANMRGLILEGIYSHFAAASEDDRDYCKEQFDKFMNLISSLEKKRLKIPLKHIANAAAILNLNYSHLDMVRPGIILFGAYPSKRVERKVELRETLRFTTRVVHLKDVPAGFFIGYGKSFVTKRKSVIATIPVGYADGLDRRLSNNYKLLLKGKYVPIVGRVCMDQCMIDVTDVEGVEIGDEVVIIGTQNNETVSVESMADKIETIPYEVFSRISRRVPRVYFYDGIKIGEVNYLK
With B1, in the series “purified protein [4]”, the Michaelis constant (Km) came to 52.03 ± 5.41 mM, the kcat amounted to 251 s⁻¹ and the kcat/Km is 4830 M⁻¹ s⁻¹. Besides, in the series “purified protein [5]”, the Km stood at 87.81 ± 8.72 mM, the kcat is 431 s⁻¹ and the kcat/Km was 4910 M⁻¹ s⁻¹.

B2: AlrTt (Caldanaerobacter subterraneus subsp. tengcongensis MB4; Q360Y/S173D) (protein)
chain: B1 chain with S173D
As to B2, in “purified protein [4]”, the Km turned out to be 58.48 ± 7.29 mM, the kcat was found to be 133 s⁻¹ and the catalytic efficiency (kcat/Km) worked out at 2270 M⁻¹ s⁻¹. In addition, in the series “purified protein [5]”, the Km turned out to be 83.10 ± 8.78 mM, the kcat worked out at 246 s⁻¹ and the kcat/Km came out at 2970 M⁻¹ s⁻¹.

Usually stoichiometry N stands for a count of units in the complex or per binding partner. For orientation: Km means the substrate concentration at which the rate is half of its maximum. By kcat is commonly meant the maximal rate divided by the concentration of active sites. One may read the kcat/Km as the second-order rate constant that governs catalysis at low substrate concentration.
